Our source for the Ki values is patent US12427210B2, “Compounds comprising a fibroblast activation protein ligand and use thereof” (priority 2019, dated 2025).

The target in one test is delta (DOP) (h) (human) (UniProt P41143). Put plainly: radioligand displacement, reference compound of the assay (Ki Ref). (In general: Loss of bound radioactivity is the signal in a displacement assay; it reports binding, not function.)
The target of the next test is mu (MOP) (h) (human) (UniProt P35372). The test is described as above.

For DPDPE (peptide), the Ki – broadly, a dissociation constant, usually derived from enzyme kinetics or from competition with a known ligand – with delta (DOP) (h) (human) stood at 1200 pM.

The substance DAMGO (peptide) came in with a Ki with mu (MOP) (h) (human) of 370 pM. This lies in the sub-nanomolar range.
